Drawing on patent US20150359911, “Aptamer Specific to Integrin alpha-v-beta-3 and Use Thereof” (POSTECH ACADEMY-INDUSTRY FOUNDATION, published 2015), this text covers Kd for 4 molecules.

Common to all, as to settings: tags: R&D Systems 3050-AV
The target in data set [1] is T1, Integrin alpha-v beta-3 (UniProt P06756;P05106 P06756:31-992,P05106:27-718). Description: filter; Bmax 0.82; HEPES, NaCl, KCl, MgCl2 buffer, 37 C. Here is the method: (§1) 20,000 cpm of the labeled DNA pool were put in 100 μL 1×SB buffer (200 mM HEPES, 510 mM NaCl, 25 mM KCl, 25 mM MgCl₂), and slowly cooled from 95° C. to 37° C. at a rate of 0.1° C./sec. And, integrin αᵥβ₃ (R&D systems, 3050-AV) was serially diluted to 12 points at 100 nM using buffer (200 mM HEPES, 510 mM NaCl, 25 mM KCl, 25 mM MgCl₂), and then, 30 μL of the above heated and cooled DNA pool was respectively added and reacted at 37° C. for 30 minutes. A nylon membrane (GE healthcare) was spotted with 2 μL of the complex of DNA and integrin αᵥβ₃, and then, 5.5 μL of zorbax resin (Agilent) was added thereto. And, it was put in a Durapore filter (Millipore) previously wetted with 50 μL of 1×SB buffer (200 mM HEPES, 510 mM NaCl, 25 mM KCl, 25 mM MgCl₂) and vacuum was applied. And, the membrane filter was washed with 100 μL of 1× selection buffer (200 mM HEPES, 510 mM NaCl, 25 mM KCl, 25 mM MgCl₂). The filter plate was exposed to an image plate overnight, and then, images were quantified with FLA-5100 (Fuji).
T1 sequence (P06756 31-992, chain 1 of 2): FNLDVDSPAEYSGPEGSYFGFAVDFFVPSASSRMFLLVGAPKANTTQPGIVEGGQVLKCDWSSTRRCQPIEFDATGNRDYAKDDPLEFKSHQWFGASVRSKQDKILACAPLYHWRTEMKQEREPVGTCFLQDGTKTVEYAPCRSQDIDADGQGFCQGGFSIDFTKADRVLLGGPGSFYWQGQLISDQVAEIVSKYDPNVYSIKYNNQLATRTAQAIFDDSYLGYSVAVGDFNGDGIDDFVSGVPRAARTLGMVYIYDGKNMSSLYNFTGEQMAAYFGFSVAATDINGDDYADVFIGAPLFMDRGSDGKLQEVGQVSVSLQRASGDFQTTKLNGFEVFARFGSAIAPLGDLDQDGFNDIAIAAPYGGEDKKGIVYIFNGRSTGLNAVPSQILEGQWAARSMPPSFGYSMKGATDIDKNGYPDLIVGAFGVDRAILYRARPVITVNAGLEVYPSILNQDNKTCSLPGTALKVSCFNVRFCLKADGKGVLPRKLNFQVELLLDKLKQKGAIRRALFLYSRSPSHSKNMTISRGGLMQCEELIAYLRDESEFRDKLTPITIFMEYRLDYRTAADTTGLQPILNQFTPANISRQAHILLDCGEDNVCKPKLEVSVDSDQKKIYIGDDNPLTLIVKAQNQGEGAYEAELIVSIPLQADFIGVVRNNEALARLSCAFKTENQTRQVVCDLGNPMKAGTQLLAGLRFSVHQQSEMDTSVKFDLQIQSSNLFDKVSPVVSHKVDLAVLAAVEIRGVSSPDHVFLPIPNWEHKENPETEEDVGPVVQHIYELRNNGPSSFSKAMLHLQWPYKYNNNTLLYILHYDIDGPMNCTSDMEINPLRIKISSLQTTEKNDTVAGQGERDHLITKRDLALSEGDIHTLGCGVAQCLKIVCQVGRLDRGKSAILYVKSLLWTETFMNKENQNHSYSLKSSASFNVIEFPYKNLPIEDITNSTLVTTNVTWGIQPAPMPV
T1 sequence (P05106 27-718, chain 2 of 2): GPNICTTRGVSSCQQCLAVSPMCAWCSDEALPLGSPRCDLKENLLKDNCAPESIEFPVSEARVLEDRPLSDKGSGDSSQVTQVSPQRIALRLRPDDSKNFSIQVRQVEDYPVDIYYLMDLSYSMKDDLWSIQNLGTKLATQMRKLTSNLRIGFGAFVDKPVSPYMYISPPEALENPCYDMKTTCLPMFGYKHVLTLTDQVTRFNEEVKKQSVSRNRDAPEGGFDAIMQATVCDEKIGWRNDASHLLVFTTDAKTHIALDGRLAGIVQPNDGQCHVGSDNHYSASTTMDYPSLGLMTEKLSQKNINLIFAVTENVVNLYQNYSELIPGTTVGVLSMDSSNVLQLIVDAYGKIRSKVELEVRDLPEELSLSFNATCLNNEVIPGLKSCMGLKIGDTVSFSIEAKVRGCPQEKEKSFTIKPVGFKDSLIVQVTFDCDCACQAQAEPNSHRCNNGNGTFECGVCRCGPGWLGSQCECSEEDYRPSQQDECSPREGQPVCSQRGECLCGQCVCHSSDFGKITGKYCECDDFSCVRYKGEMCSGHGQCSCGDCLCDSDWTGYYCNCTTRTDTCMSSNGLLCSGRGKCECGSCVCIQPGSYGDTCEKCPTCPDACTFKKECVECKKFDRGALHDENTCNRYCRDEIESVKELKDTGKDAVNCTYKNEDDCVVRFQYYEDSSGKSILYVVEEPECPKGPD
(§2) In order to examine binding affinity of clone having repeatedly observed base sequence, filter binding assay was conducted by the same method as pool binding assay. The binding affinity was calculated using SigmaPlot 11 (Systat Software Inc.) from the value obtained through the filter binding assay, and the results are shown in the following Table 4. […]

The target in data set [2] is T1, Integrin alpha-v beta-3. Description: filter; Bmax 0.88; HEPES, NaCl, KCl, MgCl2 buffer, 37 C. As for the experimental part: as §1, §2
The target of data set [3] is T1, Integrin alpha-v beta-3. Description: filter; Bmax 0.56; HEPES, NaCl, KCl, MgCl2 buffer, 37 C. As for the experimental part: as §1, §2
Data set [4] addresses T1, Integrin alpha-v beta-3. Description: filter; Bmax 0.69; HEPES, NaCl, KCl, MgCl2 buffer, 37 C. Here is the method: as §1, §2

B1: Clone #25 (S003-A4-025-T7_A04), full length (ssDNA)
DNA: TCAGCCGCCAGCCAGTTCGTTTTAAGAAATTAGCACACCGTTGACTTGTTTAGTGGCGGACCAGAGCACCACAGAG
modifications: n in core = 5-(N-benzylaminocarbonyl)-2'-deoxyuridine (BzdU) [n positions 20,21,22,23,30,31,41,42,46,47,49,50,51,54 = modified dU]
By Kd is commonly meant the concentration at which binding is half-saturated. Lower therefore signals tighter binding. Molecule B1 displayed a Kd with Integrin alpha-v beta-3 [1] of 17.6 nM.

B2: Clone #21 (S003-A4-021-T7_E03), full length (ssDNA)
DNA: TCAGCCGCCAGCCAGTTCCGAGGGAGTTATGGAGATTGTGTTGTTTAAGGTCGGAACTGACCAGAGCACCACAGAG
modifications: n in core = 5-(N-benzylaminocarbonyl)-2'-deoxyuridine (BzdU) [n positions 27,28,30,36,37,39,41,42,44,45,46,51,58 = modified dU]
Molecule B2 showed a dissociation constant (Kd) in the data set with Integrin alpha-v beta-3 [2] of 59 nM.

B3: Clone #11 (S003-A4-011-T7_C02), full length (ssDNA)
DNA: TCAGCCGCCAGCCAGTTCTTTTAATCTTCTCTGTCAGATGGCTGGTAGGGTGTATGACGACCAGAGCACCACAGAG
modifications: n in core = 5-(N-benzylaminocarbonyl)-2'-deoxyuridine (BzdU) [n positions 19,20,21,22,25,27,28,30,32,34,39,43,46,51,53,55 = modified dU]
Turning to B3, in the data set with Integrin alpha-v beta-3 [3], binding was characterised by a dissociation constant (Kd) of 38 nM.

B4: Clone #12 (S003-A4-012-T7_D02), full length (ssDNA)
DNA: TCAGCCGCCAGCCAGTTCAGTTGCCAATTTGCAGCCTAGGATACGTTTTCGAAACTGCAGACCAGAGCACCACAGAG
modifications: n in core = 5-(N-benzylaminocarbonyl)-2'-deoxyuridine (BzdU) [n positions 21,22,28,29,30,37,42,46,47,48,49,56 = modified dU]
B4 had a Kd in the data set with Integrin alpha-v beta-3 [4] of 23.2 nM.
